Patent publication US20020115167

Molecular target: T1, Dishevelled (Dsh) protein, Drosophila, P51140
T1 chain: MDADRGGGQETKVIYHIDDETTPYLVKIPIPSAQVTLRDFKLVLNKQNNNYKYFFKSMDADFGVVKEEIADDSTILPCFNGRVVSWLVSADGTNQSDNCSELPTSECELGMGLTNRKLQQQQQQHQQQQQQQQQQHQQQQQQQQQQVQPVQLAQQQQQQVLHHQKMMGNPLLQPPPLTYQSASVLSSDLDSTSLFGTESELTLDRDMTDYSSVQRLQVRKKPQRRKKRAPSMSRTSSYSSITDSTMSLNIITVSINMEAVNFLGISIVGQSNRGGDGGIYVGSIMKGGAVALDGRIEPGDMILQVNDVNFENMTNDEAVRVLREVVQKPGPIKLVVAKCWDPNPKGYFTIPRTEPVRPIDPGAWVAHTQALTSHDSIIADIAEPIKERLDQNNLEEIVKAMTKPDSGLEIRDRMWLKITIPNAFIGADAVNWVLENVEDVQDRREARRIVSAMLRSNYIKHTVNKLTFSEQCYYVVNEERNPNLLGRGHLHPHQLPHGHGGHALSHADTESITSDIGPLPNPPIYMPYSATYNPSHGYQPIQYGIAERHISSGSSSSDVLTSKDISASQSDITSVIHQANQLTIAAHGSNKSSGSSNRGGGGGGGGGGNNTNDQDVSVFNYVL

B1: Drosophila PAR-1 (dPAR-1), the Dishevelled-associated kinase (protein)
chain: MSTAMRTTLQSVPEALPADSVSNGTASNVAAPAAPVSSATNAVPPLAAVSSTTATYATNSISTSSHSVKDQQQQQQQQQHDSANANIVSLPPTTTPVANTNTMMPIVTSSNSATSNSTAATPTPASGAAATGGVGSVSQGPATVSASAANTNHSHQHSHQHHHHVANNMTTDGARLSSNNSAVVASSAINHHHHHTPGSGVAPTVNKNVLSTHSAHPSAIKQRTSSAKGSPNMQMRSSAPMRWRATEEHIGKYKLIKTIGKGNFAKVKLAKHLPTGKEVAIKIIDKTQLNPGSLQKLFREVRIMKMLDHPNIVKLFQVIETEKTLYLIMEYASGGEVFDYLVLHGRMKEKEARVKFRQIVSAVQYCHQKRIIHRDLKAENLLLDSELNIKIADFGFSNEFTPGSKLDTFCGSPPYAAPELFQGKKYDGPEVDVWSLGVILYTLVSGSLPFDGSTLRELRERVLRGKYRIPFYMSTDCENLLRKFLVLNPAKRASLETIMGDKWMNMGFEEDELKPYIEPKADLADPKRIEALVAMGYNRSEIEASLSQVRYDDVFATYLLLGRKSTDPESDGSRSGSSLSLRNISGNDAGANAGSASVQSPTHRGVHRSISASSTKPSRRASSGAETLRVGPTNAAATVAAATGAVGAVNPSNNYNAAGSAADRASVGSNFKRQNTIDSATIKENTARLAAQNQRPASATQKMLTTADTTLNSPAKPRTATKYDPTNGNRTVSGTSGIIPRRSTTLYEKTSSTEKTNVIPAETKMASAVKSSRHFPRNVPSRSTFHSGQTRARNNTALEYSGTSGASGDSSHPGRMSFFSKLSSRFSKRPNQ
in-gel in vitro kinase assay: these bands phosphorylated the Dsh substrate impregnated in the gel
